Test results as given in article PMC8556265.

Target: Lsi1_(cryst) (rice Low silicon rice 1, ΔN44/ΔC24/K50R/C66A/T93V/C139A/K232R/T253V/K264R) (rice (Oryza sativa cv. Nipponbare))
Test: crystal structure; X-ray, 1.8 Å; sitting drop vapour diffusion at 7 °C, 39-50% PEG 400, 100 mM Gly-NaOH pH 9.5, 1% OG, 0.1% CHS; space group P2_(1), two tetramers built

stoichiometry N: 4
Substance: Lsi1_(cryst) (rice Low silicon rice 1, ΔN44/ΔC24/K50R/C66A/T93V/C139A/K232R/T253V/K264R) (domain or fragment)
